The target in experiment [1] is Native bovine (β, γ)-actin, P60712;P63258. The experiment in a line: TIRFM single-filament re-growth assay after CP washout (mono-exponential fit). The settings on record: Cy5-UTRN261N (10 nM), profilin-actin (2 μM), myotrophin/V1 (20 nM) after CP washout.
Experiment [2] shares this target. The experiment in a line: TIRFM (KD calculated from koff and kon).
For experiment [3] the target is unchanged. Briefly: single molecule TIRFM assay (linear fit of kobs against CP concentration). The settings on record: Cy5-UTRN261N (10 nM), profilin-actin (2 μM), TMR-CP.
For experiment [4], the target named is Actin (Homo sapiens) (UniProt P60709). The settings on record: cited from earlier work.

The Kd is the equilibrium constant for the complex coming apart. One may read the kon as the rate constant with which the complex forms.

The substance “Murine heterodimeric capping protein (α1, β2), wildtype (from UniProt P47753;P47757-2) αY277V” came in with a koff in experiment [1] of 2.6 s^-1·10^-3. Besides, the Kd in experiment [2] was 0.3 nM. Moreover, in experiment [3], the kon worked out at 8.68e+06 M⁻¹ s⁻¹.
For Profilin (from UniProt P07737), the Kd in experiment [4] is 19 nM.

These data come from publication PMC8429771.
